# Literature values in article PMC4567495.
# pKd: −log10 of the molar value.
# Columns and labels:
# [1] = target: cardiac troponin I switch peptide (Homo sapiens) (UniProt P19429); assay: NMR
# [2] = target: cardiac troponin I switch peptide 147-163 (Homo sapiens) (UniProt P19429); assay: NMR
# Chain of cardiac troponin I switch peptide (Homo sapiens) (P19429 2-210): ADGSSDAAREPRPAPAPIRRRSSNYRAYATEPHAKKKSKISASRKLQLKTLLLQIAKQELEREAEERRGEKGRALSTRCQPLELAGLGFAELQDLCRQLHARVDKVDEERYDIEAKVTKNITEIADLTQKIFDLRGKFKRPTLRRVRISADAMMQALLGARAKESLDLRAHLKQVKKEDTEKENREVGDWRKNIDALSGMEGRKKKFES
substance,measurement,setting,value
cardiac troponin C N-domain (from UniProt P63316),pKd,[1],< 2.70
same,pKd,[2],3.82
